The target of assay [1] is T1, cynomolgus CXCR4 (cynomolgus monkey, UniProt Q28474 1-352).
T1 construct: also called cyno CXCR4; cynomolgus monkey CXCR4
Briefly: flow cytometry on CHO-S cells expressing cynomolgus CXCR4. (In general: Flow cytometry measures light scatter and fluorescence of single cells or particles in a stream.)
Procedure: (§1) Cynomolgus monkey CXCR4 expressing CHO-S cells were plated at 100 uL/well of cells at 1 million of cells/mL (0.1 million of cells/well) into a 96 well V-bottom plate (Greiner). Plates were centrifuged at 300×g for 3 min at 4° C. and supernatant discarded. […] Primary antibody dilutions were added to cells (50 μL/well) and cell pellets resuspended by pipetting. Plates was incubated for 1 h at 4° C. 100 μL/well of PBS, was added and plates centrifuged at 300×g for 3 min at 4° C. and supernatant discarded. This step was repeated twice. […] Cells were resuspended by pipetting. Plates were incubated for 1 h at 4° C. 100 μL/well PBS, was added and plates centrifuged at 300×g for 3 min at 4° C. and supernatant discarded. This step was repeated twice. Finally, cells were resuspended in 100 μL/well of PBS and analysed on CytoFLEX (Beckman Coulter).
(§2) Binding of antibodies to cynomolgus CXCR4 expressed on CHO-S cells was analysed by gating the main cell population using forward and side scatter (Flow Jo, Flow Jo LLC) to allow for doublet discrimination. […] EC₅₀ values were calculated by transforming the data and fitting a 4-parameter logistic regression curve to each antibody titration.

For assay [2], the target named is T2, human CXCR4 (cell-expressed) (human, UniProt P61073 1-352). In words: cell-based or functional assay.
The target in assay [3] is T1, cynomolgus CXCR4. Briefly: cell-based or functional assay.
Assay [4] addresses T3, terbium-labelled SNAP-CXCR4 on HEK-293 cells (Cisbio C1TT1CXCR4) (human, UniProt P61072 1-352 (Pan troglodytes entry), terbium label on the SNAP tag).
T3 construct: Bought assay-ready cells; also called CXCR4 expressing cells; not shown: SNAP tag
Briefly: TR-FRET (Tag-lite) competition with AlexaFluor 647-CXCL12 on terbium-labelled SNAP-CXCR4 HEK-293 cells. For orientation: TR-FRET usually uses a lanthanide donor and a delayed reading to cut background.

Assay [5] addresses T2, human CXCR4 (cell-expressed). Briefly: cell-based or functional assay. This is another data set of the same source.
For assay [6] the target is unchanged. In words: cell-based or functional assay. This is another data set of the same source.
Assay [7] shares this target. Briefly: cell-based or functional assay. This is another data set of the same source.
The target is the same in assay [8]. Briefly: cell-based or functional assay. The source holds these as a separate data set.
Assay [9] has the same target. In words: cell-based or functional assay. This is another data set of the same source.
Assay [10] shares this target. In words: cell-based or functional assay. This is another data set of the same source.
The target in assay [11] is T4, CXCR4 StaR nanodiscs.
T4 construct: Purified receptor in lipid-protein nanodiscs; also called StaR CXCR4; thermostabilised CXCR4
Briefly: SPR (Biacore T200), IgG4-PE antibody captured by anti-IgG on CM5, CXCR4 StaR nanodiscs at 250 nM as analyte, 25 C, 1:1 model; N = 2. A general note: In SPR one partner is held on a chip, and binding of the other changes the refractive index at the surface.
Procedure: (§3) Anti-IgG antibodies were immobilised on chip CM5 (GE Healthcare) by amine coupling. […] A channel with no anti-CXCR4 antibodies captured was used as a reference. […] The blank-subtracted sensorgrams were fitted to the 1:1 interaction model using the Biacore T200 evaluation software. The assay was run at 25° C. using 0.01 M HEPES pH 7.4, 0.15 M NaCl as running buffer.

Assay [12] deals with T4, CXCR4 StaR nanodiscs. In words: SPR (Biacore T200), IgG4-PE antibody captured by anti-IgG on CM5, CXCR4 StaR nanodiscs at 250 nM as analyte, 25 C, 1:1 model; N = 1.
Procedure: as §3
In assay [13] the target is T5, human CXCR7 (human, UniProt P25106 1-362).
T5 construct: Expressed on CHO-S cells
T5 sequence (P25106 whole entry): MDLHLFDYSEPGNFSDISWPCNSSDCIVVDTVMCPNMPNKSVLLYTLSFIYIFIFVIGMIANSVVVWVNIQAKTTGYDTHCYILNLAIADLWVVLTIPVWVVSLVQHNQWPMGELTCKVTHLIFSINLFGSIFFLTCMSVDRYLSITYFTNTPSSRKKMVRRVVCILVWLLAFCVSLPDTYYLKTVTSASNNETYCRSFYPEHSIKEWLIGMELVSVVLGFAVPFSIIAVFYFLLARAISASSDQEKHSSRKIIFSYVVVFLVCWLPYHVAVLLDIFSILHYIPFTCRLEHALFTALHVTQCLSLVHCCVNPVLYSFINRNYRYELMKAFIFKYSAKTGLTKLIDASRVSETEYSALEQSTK
Briefly: flow cytometry on CHO-S cells expressing human CXCR7, Alexa Fluor 647 secondary antibody, GeoMean (647 nm).
Procedure: CXCR7 expressing CHO-S cells were plated at 100 μL/well of cells at 1 million of cells/mL (0.1 million of cells/well) into a 96 well V-bottom plate (Greiner). Plates were centrifuged at 300×g for 3 min at 4° C. and supernatant discarded. […] Primary antibody dilutions were added to cells (100 μL/well) and cell pellets resuspended by pipetting. Plate was incubated for 1 h at 4° C. 100 μL/well of PBS, was added and plates centrifuged at 300×g for 3 min at 4° C. and supernatant discarded. This step was repeated twice. […] Cells were resuspended by pipetting. Plate was incubated for 1 h at 4° C. 100 μL/well of PBS, was added and plates centrifuged at 300×g for 3 min at 4° C. and supernatant discarded. This step was repeated twice. Finally, cells were resuspended in 100 μL/well of PBS and analysed on CytoFLEX (Beckman Coulter).
Binding of antibodies to CXCR7 expressed on CHO-S cells was analysed by gating the main cell population using forward and side scatter (Flow Jo, Flow Jo LLC) to allow for doublet discrimination.

In assay [14] the target is T5, human CXCR7. Briefly: flow cytometry on CHO-S cells expressing human CXCR7, anti-mouse Alexa Fluor 647 secondary antibody, GeoMean (647 nm).
Assay [15] addresses T1, cynomolgus CXCR4. In words: flow cytometry on CHO-S cells expressing cynomolgus CXCR4, anti-human Alexa Fluor 647 secondary antibody, GeoMean (647 nm).
Procedure: as §1, §2

T2 sequence (P61073 whole entry): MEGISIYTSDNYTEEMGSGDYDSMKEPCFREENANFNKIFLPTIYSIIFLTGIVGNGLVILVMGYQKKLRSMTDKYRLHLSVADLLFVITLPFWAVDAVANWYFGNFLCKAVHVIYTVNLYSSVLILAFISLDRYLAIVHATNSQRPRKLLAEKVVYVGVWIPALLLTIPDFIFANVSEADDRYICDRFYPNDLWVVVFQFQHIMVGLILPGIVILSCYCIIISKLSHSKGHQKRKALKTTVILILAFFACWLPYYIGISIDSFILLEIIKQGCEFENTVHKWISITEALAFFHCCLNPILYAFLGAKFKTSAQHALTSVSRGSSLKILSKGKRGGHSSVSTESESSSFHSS
T1 sequence (Q28474 whole entry): as the sequence (P61073 whole entry) above, with M24I, N35H, K38R, R146K, N176S counted along it
T3 sequence (P61072 whole entry): as the sequence (P61073 whole entry) above

B1: CL-82558 (antibody, human IgG4 S228P, kappa, V domains shown)
VH: QVQLQESGPGLVKPSQTLSLTCTVSGGSISSGGYYWSWIRQVPGKGLEWIGYISYSGNTFYSPSLKSRVTISVDTSENKFSLRLTSVTAADTAVYFCARDRRIPMLRGVKGYYYGLDVWGQGTTVTVSS
VL: DIVMTQSPLSLPVIPGEPASISCRSSQSLLHRNGYKYLDWYLQKPGQSPQLLIYLGSNRASGVPARFSGSGSGTDFTLKISRVEAEDVGVYYCMQALQTPWTFGQGTKVEIKR
notes: Tested in human IgG4-PE format; also called CL-82558 (IgG4-PE format)
By EC50 is commonly meant the midpoint of the concentration-response curve. Low readings indicate higher potency in that assay, high ones lower potency in that assay. The term IC50 denotes the concentration needed to halve the response being measured. The term Kd denotes the constant that tells how readily two partners part at equilibrium. A lower Kd goes with tighter binding. The koff is the rate constant with which the complex falls apart. A high value points to a short-lived complex. Broadly, the kon is the second-order rate constant of association. B1 displayed an EC50 in assay [1] of 1.1 nM. In assay [2], the “% Max Inhibition, cAMP HTRF assay, CXCR4 BacMam HEK-293 cells” value was found to be 94% and the “IC50, cAMP HTRF assay, CXCR4 BacMam HEK-293 cells, 5.5 nM CXCL12” value is 29 nM. For the same molecule, in assay [3], the “% Maximum Inhibition, cAMP HTRF assay, cyno CXCR4 BacMam HEK-293 cells” value worked out at 83% and the “IC50, cAMP HTRF assay, cyno CXCR4 BacMam HEK-293 cells” value came to 1.3 nM. In [4], the “% Max Inhibition” value was found to be 101% and the half-maximal inhibitory concentration (IC50) came to 0.57 nM. For the same molecule, the “% of max migration at 120 nM Ab, primary naïve T-cell trans-well migration” value in assay [5] came out at 6.34%. Moreover, in assay [6], the “IC50 n = 1, Jurkat chemotaxis towards 30 nM CXCL12 (IncuCyte)” value is 0.72 nM; the “IC50 n = 2, Jurkat chemotaxis towards 30 nM CXCL12 (IncuCyte)” value is 0.94 nM; the “IC50 n = 3, Jurkat chemotaxis towards 30 nM CXCL12 (IncuCyte)” value was 0.71 nM; the “Mean IC50, Jurkat chemotaxis towards 30 nM CXCL12 (IncuCyte)” value was determined as 0.79 nM. In [7], the “% Max Inhibition, beta-arrestin reporter assay, Tango CXCR4-bla U2OS cells” value came to 99.5% and the “IC50, beta-arrestin reporter assay, Tango CXCR4-bla U2OS cells, 30 nM CXCL12” value stood at 0.07 nM. Further, in assay [8], the “% effect (remaining % of CXCL12 response), DMR assay, human T-cells” value came out at 4.3% and the “IC50, label-free DMR assay, isolated human T-cells, EC80 CXCL12” value was found to be 1.72 nM. The “IC50 of antibody in presence of 30 nM CXCL12, human T-cell transwell chemotaxis” value in assay [9] was 0.14 not printed (nM assumed). Further, the “Max Signal (Total Overlap Object Area), internalisation on Ramos cells, live-cell imaging” value in [10] came out at 23900 µm^2 per image. Besides, in assay [11], the affinity, expressed as Kd, was 1.7 nM; the off-rate (koff) was found to be 0.00013 s⁻¹; the kon was found to be 77000 M⁻¹ s⁻¹. In assay [12], this molecule returned a dissociation constant Kd of 3.9 nM, a dissociation rate constant (koff) of 0.00047 s⁻¹ and a kon of 120000 M⁻¹ s⁻¹. For the same molecule, in assay [13], the binding result is “no binding (tested: log(M) about -6.9 (about 1.2e-7 M))”.

B2: Anti-CXCR7 mAb #11G8 (R&D Systems) (antibody, V domains shown)
VH: EVKLVESGGDLVQPGGSLKLSCATSGFTFSDYYMFWVRQTPEKRLEWVAYITNGGDRSYYSDTVTGRFIISRDNAKNTLYLQMSRLKSEDTAMYYCARQGNWAAWFVYWGQGTLVTVSA
VL: DVLMTQTPLSLPVSLGDQASISCRSSHYIVHSDGNTYLEWYLQKPGQSPKLLIYKVSNRFSGVPDRFSGSGSGTDFTLKISRVEAEDLGIYYCFQGSHVPLTFGAGTKLELKR
Usually EC50 (read off the curve) stands for the midpoint of the concentration-response curve. On to B2, for which the “EC50 (read off the curve)” value in assay [14] was around 10 nM.

B3: CL-148729 (antibody, human IgG4 S228P, lambda, V domains shown)
VH: AVQLVESGGGLVQPGGSLKLSCAASGFTFSGSTMHWVRQASGRGLEWVGRIRSKADSYATAYSASVKGRFTISRDDSKKMAYLQMNSLKTEDMAVYYCTRSGDYWGQGTLVTVSS
VL: QSVLTQPPSVSAAPGQKVTISCSGSSSNIGKNYVAWYQQLPGTAPKLLIYDTNKRPSGIPDRFSGSKSGTSATLDITGLQTGDEADYYCGTWDISLSVGWLFGGGTKVTVLG
notes: Tested in human IgG4-PE format
Consider B3, for which, in [2], the “% Max Inhibition, cAMP HTRF assay, CXCR4 BacMam HEK-293 cells” value was found to be 114% and the “IC50, cAMP HTRF assay, CXCR4 BacMam HEK-293 cells, 5.5 nM CXCL12” value amounted to 6 nM. Also, the binding result in assay [15] was “no binding (tested: log(M) about -6.9 (about 1.2e-7 M))”. Also, in assay [7], the “% Max Inhibition, beta-arrestin reporter assay, Tango CXCR4-bla U2OS cells” value came to 99.6% and the “IC50, beta-arrestin reporter assay, Tango CXCR4-bla U2OS cells, 30 nM CXCL12” value was determined as 0.11 nM.
